From US20260001937A1, “NOVEL RECOMBINANT FIBRINOGEN VARIANTS FOR FIBRIN SEALANTS FOR SURGICAL WOUND CARE” (Julius-Maximilians-Universität Würzburg, priority 2022, published 2026) come the findings set out here.

Where a chain is given by its changes, count along the chain named.

The target of series [1] is T1, synthetic gamma-chain peptide QLI(K)AIQ with K changed to serine.
T1 chain: QLISAIQ

Series [2] has as its target T2, synthetic gamma-chain peptide ATL(K)SRM with K changed to serine.
T2 chain: ATLSSRM

For series [3], the target named is T3, WT-Fbg (human fibrinogen, SigmaAldrich), P02671.
T3 chain 1: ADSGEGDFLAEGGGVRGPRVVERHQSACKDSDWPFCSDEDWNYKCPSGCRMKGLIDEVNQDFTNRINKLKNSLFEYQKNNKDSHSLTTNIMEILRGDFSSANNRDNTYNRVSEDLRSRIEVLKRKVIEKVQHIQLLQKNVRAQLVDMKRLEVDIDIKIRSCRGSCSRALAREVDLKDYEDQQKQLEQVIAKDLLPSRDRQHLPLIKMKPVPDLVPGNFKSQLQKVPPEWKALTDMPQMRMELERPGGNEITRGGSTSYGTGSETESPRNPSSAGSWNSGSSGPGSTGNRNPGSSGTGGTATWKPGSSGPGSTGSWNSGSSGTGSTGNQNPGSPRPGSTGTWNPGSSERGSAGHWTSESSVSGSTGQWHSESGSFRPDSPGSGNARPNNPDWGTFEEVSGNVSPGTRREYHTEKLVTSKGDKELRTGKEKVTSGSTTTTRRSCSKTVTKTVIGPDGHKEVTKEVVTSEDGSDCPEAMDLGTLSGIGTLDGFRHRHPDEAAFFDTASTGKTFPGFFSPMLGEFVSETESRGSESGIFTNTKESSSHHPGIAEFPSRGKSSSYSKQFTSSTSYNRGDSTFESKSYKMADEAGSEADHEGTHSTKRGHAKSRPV
T3 chain 2: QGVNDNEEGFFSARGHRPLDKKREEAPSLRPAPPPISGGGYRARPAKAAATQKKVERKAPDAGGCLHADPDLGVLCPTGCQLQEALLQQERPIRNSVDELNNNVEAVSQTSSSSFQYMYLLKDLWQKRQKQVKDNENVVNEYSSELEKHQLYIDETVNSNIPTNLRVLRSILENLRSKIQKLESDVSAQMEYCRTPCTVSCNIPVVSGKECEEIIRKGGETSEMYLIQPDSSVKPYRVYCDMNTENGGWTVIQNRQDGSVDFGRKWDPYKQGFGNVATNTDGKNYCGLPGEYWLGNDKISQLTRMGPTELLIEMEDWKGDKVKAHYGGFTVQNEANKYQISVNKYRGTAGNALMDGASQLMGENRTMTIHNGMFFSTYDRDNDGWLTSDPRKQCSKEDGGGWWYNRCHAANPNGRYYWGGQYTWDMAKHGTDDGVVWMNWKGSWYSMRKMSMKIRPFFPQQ
T3 chain 3: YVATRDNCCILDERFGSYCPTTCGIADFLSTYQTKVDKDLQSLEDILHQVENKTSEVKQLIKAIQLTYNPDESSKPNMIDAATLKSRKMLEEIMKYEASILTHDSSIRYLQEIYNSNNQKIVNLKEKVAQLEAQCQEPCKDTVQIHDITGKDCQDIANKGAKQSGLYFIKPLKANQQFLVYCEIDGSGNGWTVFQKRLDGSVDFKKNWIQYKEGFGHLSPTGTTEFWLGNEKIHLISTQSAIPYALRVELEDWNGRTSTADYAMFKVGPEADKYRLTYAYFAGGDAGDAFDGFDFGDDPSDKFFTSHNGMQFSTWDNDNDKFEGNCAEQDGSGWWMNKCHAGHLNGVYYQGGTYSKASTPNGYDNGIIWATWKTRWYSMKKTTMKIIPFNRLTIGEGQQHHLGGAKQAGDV

Series [4] has as its target T4, His-rFbg (recombinant fibrinogen, gamma-chain K88H, K111H, K382H, K399H).
T4 chain 1: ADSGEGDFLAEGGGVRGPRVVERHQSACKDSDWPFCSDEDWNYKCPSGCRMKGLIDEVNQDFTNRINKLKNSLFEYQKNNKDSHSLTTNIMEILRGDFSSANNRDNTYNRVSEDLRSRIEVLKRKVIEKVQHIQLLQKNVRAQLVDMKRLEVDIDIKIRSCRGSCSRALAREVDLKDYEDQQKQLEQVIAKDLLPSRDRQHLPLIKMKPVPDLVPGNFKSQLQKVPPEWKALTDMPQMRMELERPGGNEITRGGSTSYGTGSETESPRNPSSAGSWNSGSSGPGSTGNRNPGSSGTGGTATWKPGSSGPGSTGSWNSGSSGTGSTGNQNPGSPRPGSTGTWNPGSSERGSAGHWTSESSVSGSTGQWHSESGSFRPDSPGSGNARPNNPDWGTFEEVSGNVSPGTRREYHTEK
T4 chain 2: T3 chain 2
T4 chain 3: T3 chain 3 with K62H, K85H, K356H, K373H

For series [5], the target named is T5, synthetic gamma-chain peptide ATW(K)TRW with K changed to serine.
T5 chain: ATWSTRW

Series [6] has as its target T6, synthetic gamma-chain peptide TYS(K)AST with K changed to serine.
T6 chain: TYSSAST

B1: human plasmin (Merck) (protein)
chain: KVYLSECKTGNGKNYRGTMSKTKNGITCQKWSSTSPHRPRFSPATHPSEGLEENYCRNPDNDPQGPWCYTTDPEKRYDYCDILECEEECMHCSGENYDGKISKTMSGLECQAWDSQSPHAHGYIPSKFPNKNLKKNYCRNPDRELRPWCFTTDPNKRWELCDIPRCTTPPPSSGPTYQCLKGTGENYRGNVAVTVSGHTCQHWSAQTPHTHNRTPENFPCKNLDENYCRNPDGKRAPWCHTTNSQVRWEYCKIPSCDSSPVSTEQLAPTAPPELTPVVQDCYHGDGQSYRGTSSTTTTGKKCQSWSSMTPHRHQKTPENYPNAGLTMNYCRNPDADKGPWCFTTDPSVRWEYCNLKKCSGTEASVVAPPPVVLLPDVETPSEEDCMFGNGKGYRGKRATTVTGTPCQDWAAQEPHRHSIFTPETNPRAGLEKNYCRNPDGDVGGPWCYTTNPRKLYDYCDVPQCAAPSFDCGKPQVEPKKCPGRVVGGCVAHPHSWPWQVSLRTRFGMHFCGGTLISPEWVLTAAHCLEKSPRPSSYKVILGAHQEVNLEPHVQEIEVSRLFLEPTRKDIALLKLSSPAVITDKVIPACLPSPNYVVADRTECFITGWGETQGTFGAGLLKEAQLPVIENKVCNRYEFLNGRVQSTELCAGHLAGGTDSCQGDSGGPLVCFEKDKYILQGVTSWGLGCARPNKPGVYVRVSRFVTWIEGVMRNN
As to B1, the “plasmin cleavage efficiency of synthetic peptide, HPLC” value in series [1], in series [2], in series [5] and in series [6] was “Peptide sequences including S instead of K showed a significant reduction in cleavage efficiency compared to the original sequences” throughout. The “plasmin cleavage sites in the gamma-chain, high-resolution ESI-MS after 24 h digest in solution (0.5 U/mL plasmin)” value in series [3] is reported as “the 4 different cleavage sites K88, K111, K382, K399 in the WT could be detected”. Moreover, in series [4], the “plasmin cleavage analysis of target sites (peptide fragments detected by MS)” value was “Position 382 shows a partial cleavage for the mutants (both cleaved and non-cleaved peptides detected)”. Moreover, the “plasmin cleavage at the mutated gamma-chain sites 88, 111, 382, 399, high-resolution ESI-MS after 24 h digest in solution” value in series [4] is recorded as “no cleavage was detected in either of the two mutants for all 4 mutations”.
